Reference: the supplement of paper PMC9732359
± gives the uncertainty stated by the source.

Test: protein stability index of a GFP-peptide fusion (yeast GPS) (PSI 1-4); higher = more stable; sorted into four equal gates, so the index is relative within each strain
Summary of the method: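 Sequencing reads from sorted gates were used to score each peptide. The library consisted of tiled 17-residue yeast protein peptides fused downstream of GFP on a Cherry-expressing plasmid, pooled and carried in yeast. Mid-log cultures in leucine-free medium were split into four equal gates by GFP/Cherry ratio, and each gate's plasmids were PCR-amplified and Illumina-sequenced. The protein stability index adds up, over all gates, the read frequency multiplied by the gate number.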

Sequence	protein stability index (doa10∆)	protein stability index (pdr5∆)	protein stability index (san1∆)	protein stability index (ubr1∆)
NSTNSNTTKPAFGGLNF [YJL041W/NSP1]	3.29 ± 0.082	3.29 ± 0.09	3.14 ± 0.059	3.47 ± 0.076
TKLIISGQLNFEIDGDV [PCI8]	2.57 ± 0.099	2.16 ± 0.093	1.87 ± 0.11	2.23 ± 0.055
GYKMIPGAKPLQVGDVV [FAS1]	2.43 ± 0.1	2.44 ± 0.1	2.37 ± 0.1	1.79 ± 0.14
IHIQSKENYPWELYTDF [POP3]	2.99 ± 0.095	3.16 ± 0.12	2.69 ± 0.12	3.12 ± 0.075
ENPTPEKGNAKMIDFAT [SIR3]	3.1 ± 0.11	2.99 ± 0.092	3.32 ± 0.072	3.03 ± 0.068
FKELCYENKDNLTAGII [PRE3]	2.95 ± 0.044	2.95 ± 0.042	2.93 ± 0.034	2.83 ± 0.039
VTHMDQIFVRGSQIKFI [SMD3]	2.55 ± 0.13	2.67 ± 0.14	2.17 ± 0.13	2.04 ± 0.067
LYVLPSFNIPRLTFKPW [YMR129W/POM152]	2.2 ± 0.12	1.7 ± 0.096	1.69 ± 0.18	1.54 ± 0.096
VREFLEKNYDRKEPPAT [PRE6]	3.29 ± 0.13	3.28 ± 0.1	3.11 ± 0.071	3.3 ± 0.068
TNGKPDMAILERYYELA [ARP7]	3.23 ± 0.088	3.1 ± 0.097	3.01 ± 0.075	3.19 ± 0.06
DRQIINEKMQLLKDIFA [SIR4]	2.25 ± 0.042	2.64 ± 0.054	2.31 ± 0.058	1.92 ± 0.047
DKIHARARGPMQVLTRQ [RPB2]	3.16 ± 0.13	3.22 ± 0.12	2.97 ± 0.09	3.21 ± 0.19
AELKLAGEFGLKNKREI [RPS9B]	3.08 ± 0.11	3.21 ± 0.15	3.2 ± 0.18	3.21 ± 0.12
AQNVPMNIIQQQQQQNT [GAL11]	2.48 ± 0.043	2.6 ± 0.042	2.45 ± 0.069	2.46 ± 0.029
AEKKIPLVIRRYLPDGS [RPO26]	2.79 ± 0.09	2.54 ± 0.12	3.45 ± 0.066	
HINKIPSNSTTTLHGPG [SRB8]	2.89 ± 0.059	3.17 ± 0.059	2.96 ± 0.052	3.11 ± 0.039
VIMALMLMSKIGDVDGL [POP5]	1.49 ± 0.044	2 ± 0.053	1.84 ± 0.1	1.97 ± 0.047
NFPDEDDDDSRKSAPVD [SKP1]	3.09 ± 0.046	3.2 ± 0.047	3.31 ± 0.04	3.27 ± 0.041
MEKLDAKLNHLKKLEKF [SWI3]	2.81 ± 0.13	2.7 ± 0.1	3.02 ± 0.12	
SKEGQYKAKIKELENNL [YIL149C/MLP2]	2.75 ± 0.12	1.49 ± 0.053	2.18 ± 0.13	3.03 ± 0.069
YTLTEEGVEYLREYLNL [RPS10A]	3.28 ± 0.11	3.37 ± 0.095	3.51 ± 0.16	3.39 ± 0.12
GNVLINDTLPDEISPEL [SNU114]	2.99 ± 0.089	2.77 ± 0.097	3.32 ± 0.081	2.71 ± 0.17

Sequence	protein stability index (doa10∆)	protein stability index (pdr5∆)	protein stability index (san1∆)	protein stability index (ubr1∆)
PNADDIRDSIPQMDSFD [DIS3]	2.79 ± 0.078	2.86 ± 0.089	3.14 ± 0.09	3.06 ± 0.052
LKFAVQVDKVTKEKVNG [RPL26A]	3.23 ± 0.21	3.4 ± 0.16	2.71 ± 0.11	3.01 ± 0.069
EEHHEEEPSRVDPEQEA [RPT4]	3.09 ± 0.082	3.28 ± 0.094	3.14 ± 0.052	3.26 ± 0.064
FLKKLRNEQVTIELKNG [SMD1]	2.49 ± 0.051	2.24 ± 0.044	2.42 ± 0.056	2.67 ± 0.039
SPPIIDLFSNNNYNSRI [MED1]	2.86 ± 0.071	2.92 ± 0.076	2.86 ± 0.062	2.94 ± 0.056
NQGVNELKYQRSLRATA [RPL15A]	1.33 ± 0.073	1.42 ± 0.086	1.61 ± 0.18	1.11 ± 0.05
IEHNLRVISEYYSRITL [RPN5]	2.63 ± 0.087	2.54 ± 0.078	2.41 ± 0.063	2.46 ± 0.073
IVGKKIQEFLVVIEKRR [GRR1]	3.23 ± 0.098	2.9 ± 0.098	3.29 ± 0.073	3.12 ± 0.055
SGITDPYEMYKYVHVSE [FAS2]	2.33 ± 0.072	2.63 ± 0.074	2.48 ± 0.07	2.4 ± 0.069
RLPVSEDTNTKPLFDFG [YOR098C/NUP1]	2.76 ± 0.13	2.76 ± 0.12	1.93 ± 0.23	3.08 ± 0.13
RSINNLIQEHDSRKNRE [BRN1]	3.24 ± 0.065	3.37 ± 0.052	3.15 ± 0.043	3.38 ± 0.053
NKLLGNVTIAQGGVLPN [HTA1]	1.82 ± 0.053	1.66 ± 0.041	1.72 ± 0.058	1.61 ± 0.033
LLNKNTGNNLYDRNSNN [SWI1]	2.79 ± 0.065	2.85 ± 0.06	2.7 ± 0.064	2.9 ± 0.038
DVKLVLASNFDNFDYFN [MED1]	3.17 ± 0.065	3.19 ± 0.068	3.2 ± 0.07	3.15 ± 0.056
VKIIRKSETSGRYASYR [RPB5]	3.09 ± 0.076	3.04 ± 0.05	3.01 ± 0.053	3.09 ± 0.045
SAAKASQSRSAKAGLTF [HTA1]	3.06 ± 0.081	2.96 ± 0.084	2.98 ± 0.042	3.05 ± 0.034
NKVSYYGNPTSKESWRY [RTT102]	3.23 ± 0.11	3.19 ± 0.13	2.84 ± 0.17	3.42 ± 0.098
FKRNAVFVGTIFAGAFV [QCR9]	1.92 ± 0.064	1.58 ± 0.054	1.26 ± 0.12	1.67 ± 0.051
EILVEESGLRPVSLLNS [PCI8]	2.63 ± 0.1	3.21 ± 0.1	3.16 ± 0.063	2.54 ± 0.087
NEDQFLEEITQYEHLIK [YDL116W/NUP84]		3.02 ± 0.27		
KRRFGELMDRTGLKLYS [RPP1]	2.21 ± 0.18	2.98 ± 0.12	2.23 ± 0.11	2.45 ± 0.11
DQFRDVEITFGKEFGDV [RRP45]	3.21 ± 0.1	3.27 ± 0.063	3.54 ± 0.086	3.18 ± 0.067
